Read-outs that look alike come from different tables or passages of the source.
Columns and labels:
SEC [1] = molecular target: the molecule itself; experiment: SEC
SEC [2] = molecular target: the molecule itself; experiment: SEC; remark: listed apart in the source

B1: mouse SIINFEKL‐STINGΔTM (other, chicken | mouse)
chain: GLEQLESIINFEKLTEWTSSLTPAEVSAVCEEKKLNVAHGLAWSYYIGYLRLILPGLQARIRMFNQLHNNMLSGAGSRRLYILFPLDCGVPDNLSVVDPNIRFRDMLPQQNIDRAGIKNRVYSNSVYEILENGQPAGVCILEYATPLQTLFAMSQDAKAGFSREDRLEQAKLFCRTLEEILEDVPESRNNCRLIVYQEPTDGNSFSLSQEVLRHIRQEEKEEVTMNAPMTSVAPPPSVLSQEPRLLISGMDQPLPLRTDLI
Q: Which “stoichiometry N” value (SEC [1]) does the source give for B1 here?
A: The value was 4.

Q: And the “stoichiometry N” value (SEC [2])?
A: The value was 2.

Reference: article PMC11117022 (Advanced Healthcare Materials, 2022)
